We go through one molecule from US20140221622A1.

This assay addresses EGFR on U87MG.de2-7 cells (UniProt P00533). The assay is described as follows: flow cytometry on U87MG.de2-7 cells, Alexa Fluor 488 anti-human IgG Fc. (A flow cytometer gives signals particle by particle.)

B1: DB001 DVD-Ig (CD3 and EGFR) (bispecific antibody)
VH: QVQLQESGPGLVKPSQTLSLTCTVSGYSISSDFAWNWIRQPPGKGLEWMGYISYSGNTRYQPSLKSRITISRDTSKNQFFLKLNSVTAADTATYYCVTAGRGFPYWGQGTLVTVSSASTKGPEVQLVESGGGLVQPGGSLRLSCAASGFTFSTYAMNWVRQAPGKGLEWVGRIRSKYNNYATYYADSVKDRFTISRDDSKNTAYLQMNSLRAEDTAVYYCTRHGNFGNSYVSWFAYWGQGTLVTVSS
VL: DIQMTQSPSSMSVSVGDRVTITCHSSQDINSNIGWLQQKPGKSFKGLIYHGTNLDDGVPSRFSGSGSGTDYTLTISSLQPEDFATYYCVQYAQFPWTFGGGTKLEIKTVAAPSVFIFPPDAQVTQSPSSLSASVGDRVTITCRSSTGAVTTSNYANWVQEKPGKLFKGLIGGTNKRAPGVPSRFSGSGSGTDATLTISSLQPEDFATYFCALWYSNLWVFGGGTKVEIKR
For orientation: EC50 means the concentration needed to bring the measured effect to its halfway point. Read a low EC50 as greater potency. The molecule B1 came in with an EC50 of 9 nM.
